Reference: patent publication US20020102256A1 (ZymoGenetics, published 2002)
Where “and” joins values, the source holds several entries; their conditions need not be identical. Equal values may be shown once.

Key:
Experiment in all cases: cell-based or functional assay
[1] = target: T1, Activated human C1s (Calbiochem-Novabiochem Corporation) (human, UniProt P09871 16-688)
T1 sequence (looked up): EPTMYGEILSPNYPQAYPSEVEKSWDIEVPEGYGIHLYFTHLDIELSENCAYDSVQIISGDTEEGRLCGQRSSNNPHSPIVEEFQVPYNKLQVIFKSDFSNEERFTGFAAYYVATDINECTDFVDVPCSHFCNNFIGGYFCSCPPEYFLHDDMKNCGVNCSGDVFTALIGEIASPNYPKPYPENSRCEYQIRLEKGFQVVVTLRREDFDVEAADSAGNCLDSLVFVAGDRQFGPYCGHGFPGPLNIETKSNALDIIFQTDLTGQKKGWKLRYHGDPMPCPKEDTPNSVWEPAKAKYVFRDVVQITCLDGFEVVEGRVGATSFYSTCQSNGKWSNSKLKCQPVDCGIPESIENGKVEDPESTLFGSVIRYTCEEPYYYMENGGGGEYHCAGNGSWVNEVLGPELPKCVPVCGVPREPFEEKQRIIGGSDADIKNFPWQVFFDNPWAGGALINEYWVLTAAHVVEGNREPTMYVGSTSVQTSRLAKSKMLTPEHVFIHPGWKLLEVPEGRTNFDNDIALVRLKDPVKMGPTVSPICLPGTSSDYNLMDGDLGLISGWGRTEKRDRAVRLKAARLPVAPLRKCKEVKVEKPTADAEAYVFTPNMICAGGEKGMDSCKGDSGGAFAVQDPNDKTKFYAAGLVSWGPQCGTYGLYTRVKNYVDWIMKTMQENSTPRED

[2] = target: T1, Activated human C1s …; remark: listed apart in the source
[3] = target: T2, Activated human C1s (Calbiochem-Novabiochem Corporation) (human) (UniProt P09871)
T2 sequence (looked up): T1 sequence (looked up)

B1: Deglycosylated and cleaved recombinant BD001 (other)
chain 1: AKKKLPKCQKQEDCGSWDLKCNNVTKKCECRNQVCGRGCPKERYQRDKYGCRKCLCKGCDGFKCR
chain 2: LGCTYGFKTDKKGCEAFCTCNTKETACVNIWCTDPYKCNPESGRCEDPNEEYEYDYE
modifications: sulfation of at least one of Tyr117, Tyr119 and Tyr121; glycan at Asn23 removed with PNGase F
IC50 (nM), C1s enzyme assay [1]: 21.9 nM

B2: Cleaved recombinant BD001 (other)
chain 1: B1 chain 1
chain 2: B1 chain 2
modifications: sulfation of at least one of Tyr117, Tyr119 and Tyr121; glycosylation at Asn23 (fucosylated complex-type core)
fold higher IC50 than the matched, intact form, C1s enzyme assay [2]: ~10 fold | IC50 (nM), C1s enzyme assay [1]: 19.8 nM

B3: Desulfated and cleaved recombinant BD001 (other)
chain 1: B1 chain 1
chain 2: B1 chain 2
modifications: sulfate groups removed from Tyr117/Tyr119/Tyr121 with aryl sulfatase; glycosylation at Asn23 (fucosylated complex-type core)
IC50 (nM), C1s enzyme assay [1]: 558 nM

B4: Recombinant BD001 expressed in Baculovirus (protein)
chain: AKKKLPKCQKQEDCGSWDLKCNNVTKKCECRNQVCGRGCPKERYQRDKYGCRKCLCKGCDGFKCRLGCTYGFKTDKKGCEAFCTCNTKETACVNIWCTDPYKCNPESGRCEDPNEEYEYDYE
modifications: glycosylation at Asn23 (fucosylated complex-type core); sulfation of at least one of Tyr117, Tyr119 and Tyr121 (tyrosine sulfation at the C-terminus on three tyrosine residues)
IC50 (nM), C1s enzyme assay [3]: 2.5 nM | IC50, C1s enzyme assay (decrease in Vmax of Pefa-C1E cleavage) [3]: 5.2 nM

B5: BD001 isolated from tissue (protein)
chain: B4 chain
modifications: glycosylation at Asn23 (fucosylated complex-type core); sulfation of at least one of Tyr117, Tyr119 and Tyr121
IC50 (nM), C1s enzyme assay [3]: 4 nM and 4.7 nM

B6: Desulfated recombinant BD001 (protein)
chain: B4 chain
modifications: sulfate groups removed from Tyr117/Tyr119/Tyr121 with aryl sulfatase; glycosylation at Asn23
IC50 (nM), C1s enzyme assay [3]: 36 nM

B7: BD001 protein isolated from Pichia methanolica (protein)
chain: B4 chain
modifications: lacks tyrosine sulfation at the C-terminus and N-glycosylation
IC50, C1s enzyme assay (decrease in Vmax of Pefa-C1E cleavage) [3]: 44 nM | fold decrease in activity in bioassays compared with the baculovirus-expressed material [3]: 10 fold | fold less active than the baculovirus material, C1s enzyme assay [3]: 8 fold

B8: Deglycosylated recombinant BD001 (protein)
chain: B4 chain
modifications: glycan at Asn23 removed with PNGase F; sulfation of at least one of Tyr117, Tyr119 and Tyr121
IC50 (nM), C1s enzyme assay [3]: 2.86 nM
